Measured values published in the supplement of paper PMC12764529.
± gives the half width of the 95% confidence interval.

Columns and labels:
[1] = folding stability dG unfold from chymotrypsin proteolysis; higher = more stable
In short: (§1)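 Designed mini-proteins with no cysteine and under 80 residues were kept only if AlphaFold2 dimer inter-PAE was above 15. In a PA-tagged cDNA display construct, they were digested with trypsin and chymotrypsin and then sequenced. K50 was inferred by Bayesian fitting of counts, and unfolding free energy was derived per protease or combined against a sequence-predicted unfolded-state K50 and a shared folded-state K50.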

[2] = folding stability dG unfold from trypsin proteolysis; higher = more stable
In short: as §1

[3] = folding stability dG unfold (combined trypsin and chymotrypsin); higher = more stable
In short: as §1

Row | Sequence | folding stability dG unfold [1] | folding stability dG unfold [2] | folding stability dG unfold [3]
1 | SAGGSAGGSTIMFKVDSPDELIDKIKIPPGFRVEIMQTPDRYYVMIRPPPSPEQMAKREKNNGSAGGSAGGS [r12_274_TrROS] | 3.16 ± 0.23 kcal/mol | 3.35 ± 0.42 kcal/mol | 3.26 ± 0.41 kcal/mol
2 | SAGGSAGGSAGGTITLPNGAKVTRIEFLPDGTLRVEAVVETDGGPVTVEITLPVYPSLATSAGGSAGGSAGG [r7_37_TrMRF] | 2.13 ± 0.036 kcal/mol | 2.19 ± 0.058 kcal/mol | 2.17 ± 0.037 kcal/mol
3 | SAGTVSSSFDPATGTLTITRTTSPDETVDLTLNVEVPETPATVAKVDSGGPVEGDEPVTITVELTDLKPSAG [r5_737_JUSTAS] | -0.522 ± 0.42 kcal/mol | 0.222 ± 0.075 kcal/mol | -0.152 ± 0.24 kcal/mol
4 | SAPPNHRMVMYEIPIPPGMEIGDEIKLKIKVPGKEYPIKIDRIPNLPPGMRVRIMFNLDNGQFMIQILPSAG [r14_554_TrROS] | 2.69 ± 0.062 kcal/mol | 2.52 ± 0.1 kcal/mol | 2.77 ± 0.26 kcal/mol
5 | SAGGSMGKTPDGGEVEFFEKPEENLIFAVVKHPDGSYYVAVFKKDEDKIELIDVKEVPEGEIEELASAGGSA [r2_336_TrMRF] | 2.07 ± 0.031 kcal/mol | 1.26 ± 0.089 kcal/mol | 1.89 ± 0.13 kcal/mol
6 | SAGGGNKVLLVVEAESPEVLEEKIREAEEAFGFTVTPLRREPLPDDRYRLVLEIDAPPEVVEFFKKESAGGS [r8_357_TrMRF] | 1.35 ± 0.092 kcal/mol | 1.15 ± 0.032 kcal/mol | 1.3 ± 0.045 kcal/mol
7 | SAGGSAGGRLLLVKITLPDGEEITIVLEFESEEEARAAAEALLPPGAKVEVRELSEEELEALLKSAGGSAGG [r6_267_TrROS_Hall] | 3.37 ± 0.044 kcal/mol | 3.09 ± 0.049 kcal/mol | 3.31 ± 0.052 kcal/mol
8 | SAGGMGISTEPEISFERKTLPDGTYVLEIHTTTTTTDSSGVVTTTTSTKTVKFSPDNPEKIKELIEALSAGG [r13_412_JUSTAS] | 2.51 ± 0.058 kcal/mol | 2.67 ± 0.098 kcal/mol | 2.54 ± 0.14 kcal/mol
9 | SAMKIEIIEEKEGEIIIKIEATKEEVEELAEELKKKFPGVEVEVEYDKETKKVYIRIKFKKKPSEEELKSAG [r14_600_TrROS_Hall] | 3.9 ± 0.33 kcal/mol | 3.05 ± 0.62 kcal/mol | 3.82 ± 0.31 kcal/mol
10 | SAGVTLKLPFVLPGGLGVDEIEVRSLPGGRVEARLRLKGDPRYYVVARFYVLPGGRLVITDVRVRREDESAG [r14_705_TrMRF] | 3.22 ± 0.031 kcal/mol | 3.75 ± 0.095 kcal/mol | 3.54 ± 0.082 kcal/mol
11 | SAGGSAGGSAGMYYVIKRPGKVEILPEEEVPKVIEEDPNVEVKKFDSEEEAKKALEELLKSAGGSAGGSAGG [r11_60_JUSTAS] | 0.793 ± 0.073 kcal/mol | 0.539 ± 0.039 kcal/mol | 0.704 ± 0.058 kcal/mol
12 | SAGGEKDLYLVKYRVEIKNDKGEKKEFPVTAIATSLEELEETLKALTPKNAEAKVEILEVKPLKEVLSSAGG [r13_513_TrMRF] | 1.55 ± 0.038 kcal/mol | 1.86 ± 0.091 kcal/mol | 1.72 ± 0.1 kcal/mol
13 | SAGMVTITVETTDPQGNWTTKTYEFPLDPGYSLDDVIKRHSPPNAKKYEVTKTEPPPPVTEIKLTVEPSSAG [r5_227_JUSTAS] | 1.1 ± 0.19 kcal/mol | 0.698 ± 0.082 kcal/mol | 0.822 ± 0.46 kcal/mol
14 | SAGGSAGGSMETRTFDSEEELRASVSVPSSLSVTFERRPGRWEVRIEPPLSPEEIAAQRARLLSAGGSAGGS [r12_274_JUSTAS] | -1.07 ± 0.6 kcal/mol | -0.346 ± 0.17 kcal/mol | -0.553 ± 0.11 kcal/mol
15 | SAGGYYIEFRNPNNGNTVTIPPELIEAIKSGDPDKLKKLPPWFRDALDNIDRVEIQPPPPVPPVPPGKSAGG [r13_233_TrROS] | 0.958 ± 0.041 kcal/mol | 0.68 ± 0.051 kcal/mol | 0.887 ± 0.053 kcal/mol
16 | SAGGSAGGSAMKVSTTPVTLPNGESATLETLPDGTKVLKVGDKYIVVYPSGEVKEVPLEELLSAGGSAGGSA [r18_379_JUSTAS] | 1.76 ± 0.046 kcal/mol | 1.43 ± 0.06 kcal/mol | 1.59 ± 0.12 kcal/mol
17 | SAGGSIEEVIEELIKSGKPPSKEEIKEAIKKAIEEEVKKKGKKIPKVNIKKITSNPETGKIPIEIIISAGGS [r16_365_JUSTAS] | 0.784 ± 0.056 kcal/mol | -0.757 ± 0.41 kcal/mol | 0.356 ± 0.17 kcal/mol
18 | SAGGSAGGSAGGKKPKVKVIKLTLTVTKLTEKDGKLTLEKKTITLTAVIDPETGKIHLLSAGGSAGGSAGGS [r10_533_TrROS_Hall] | 3.5 ± 0.089 kcal/mol | 3.2 ± 0.14 kcal/mol | 3.5 ± 0.16 kcal/mol
19 | MMTKEEIEKLAEELAKELEKKGYKIVKVEIEEVKPGEVKIKVDGKEITITLKDGRKLRIKVEVKKLPKEELS [r1_31_TrROS_Hall] | 3.63 ± 0.11 kcal/mol | 1.97 ± 0.053 kcal/mol | 3.04 ± 0.11 kcal/mol
20 | SAGMKYTFKILVKADSPEEAIETAKKLVEKWLKENFPELPEGVKIKEIKVEPLPDDYYLVTITVEFDPESAG [r5_320_TrMRF] | 5.51 ± 0.091 kcal/mol | 4.2 ± 0.19 kcal/mol | 5.49 ± 0.1 kcal/mol
21 | SAGGEVKYEHEGKNPDNGNMYKQEQEVPPVPIPPVIVIPAEDLDEFRELGIPENFKILPGNGWIVITSAGGS [r16_194_TrROS] | 0.154 ± 0.25 kcal/mol | 0.44 ± 0.091 kcal/mol | 0.425 ± 0.13 kcal/mol

Row | Sequence | folding stability dG unfold [1] | folding stability dG unfold [2] | folding stability dG unfold [3]
22 | SLLELAKQANGPLKINVKSEWVTLPDGTPVEIINVEVSQDPNSDVATVTKTVVDPDKDTSSTSTSTIPLGSS [r1_448_JUSTAS] | 0.316 ± 0.077 kcal/mol | -0.95 ± 0.17 kcal/mol | -0.0266 ± 0.14 kcal/mol
23 | SPPGWKVIPITLKFRAPIKSVEEAKSQVREIAREIANRHGFPIQVNVTVEYDPEDGWVKVEVPISIWVPKSA [r9_741_TrROS] | 3.234 ± 0.022 kcal/mol | 2.75 ± 0.081 kcal/mol | 2.97 ± 0.09 kcal/mol
24 | SAGGSAGGSAMTLRVKITLPDGRELELEIEAETEEEALAALKELIKKLFPEVKEVKIEVEPESAGGSAGGSA [r18_434_TrROS_Hall] | 4.85 ± 0.38 kcal/mol | 3.91 ± 0.3 kcal/mol | 4.84 ± 0.4 kcal/mol
25 | SAGGSAGGSAKPTYRVLVKNEDGEVLEAEVKVVDGKVEVTVNGKVYTFPKGAKIEIVKIEPVSAGGSAGGSA [r18_144_TrROS_Hall] | 2.92 ± 0.054 kcal/mol | 3.34 ± 0.2 kcal/mol | 3.08 ± 0.11 kcal/mol
26 | SAGGSAGGSMIVKLEDGTYLVRIVNKDTKEVIEIEVSAEEAEELAKELNIEKVEIVKAGEPLESAGGSAGGS [r12_294_TrROS_Hall] | 2.71 ± 0.059 kcal/mol | 1.78 ± 0.069 kcal/mol | 2.38 ± 0.17 kcal/mol
27 | SAGGSAGGSAGGFTVTVVEPVDPNDPAFKKLMEERGLPPEEVVATKTLTADSEEEIAALLSAGGSAGGSAGG [r11_83_JUSTAS] | 0.219 ± 0.15 kcal/mol | 0.283 ± 0.099 kcal/mol | 0.238 ± 0.12 kcal/mol
28 | SAKNIAIKVSIWPFDPEDGEPQTFEITYPFPDPEDAIDEIEEFLPPGYRVKIEVFDPDGKPLKEIEIRISAG [r14_234_TrROS] | 2.28 ± 0.048 kcal/mol | 1.93 ± 0.1 kcal/mol | 2.09 ± 0.19 kcal/mol
29 | SKTYTAEEIKKLFPNIKKVEVKDGKVRLTVENENGEKFEIEITFEAPKPEPEVEEEVEKKKEEELSEEDLSA [r9_427_TrROS_Hall] | 2.62 ± 0.14 kcal/mol | 1.28 ± 0.061 kcal/mol | 1.65 ± 0.31 kcal/mol
30 | SAGGMMKLNPKTLETKTTTVPLPDGSTVTLTTKLVELKFPNGEVELVTLTVETFPSEPTLTVLEEKPLSAGG [r19_158_JUSTAS] | 0.45 ± 0.1 kcal/mol | -0.0226 ± 0.083 kcal/mol | 0.341 ± 0.11 kcal/mol
31 | SAGGSADVKITEVHNPHRNPNGRPFFMVRIKWPDNGTHTIMMNPNDLDDLLAQLPPNWKIDEIHPISAGGSA [r15_339_TrROS] | 1.68 ± 0.055 kcal/mol | 1.39 ± 0.025 kcal/mol | 1.57 ± 0.049 kcal/mol
32 | SAGGSAGGSLVLPDDYKVIVREFDLSDVGRAVREVMEEFDVKDALFLAVPLPGKVLLFVVVKESAGGSAGGS [r12_929_TrMRF] | 2.9 ± 0.076 kcal/mol | 2.95 ± 0.098 kcal/mol | 2.99 ± 0.21 kcal/mol
33 | SAGGSAGGSAGEWVTIPIKNPEKLKDLPGLPIKDVEPNGGKPTITFNGDDPERIKEALNDSAGGSAGGSAGG [r11_65_TrROS] | 0.498 ± 0.063 kcal/mol | 0.804 ± 0.057 kcal/mol | 0.682 ± 0.3 kcal/mol
34 | SAGWYYIIIIKHDNKPIVFVIPPEGMPPEGIRDQISEMLGMPPDNVEIDDIVPFDDNQDAEEAVKEALDSAG [r5_900_TrROS] | 2.33 ± 0.14 kcal/mol | 1.53 ± 0.067 kcal/mol | 2.09 ± 0.22 kcal/mol
35 | SAMVLRIKVEVNGETKEIEIELPPNAKIEKKDGELTIYVKNPETGKIFKFKFKKNAKIVEVEEVDPEDLSAG [r14_313_TrROS_Hall] | 4.22 ± 0.052 kcal/mol | 2.6 ± 0.046 kcal/mol | 3.83 ± 0.1 kcal/mol
36 | SAGMITISEEEARELGVPIGASEEEIKEALAARLREEGYKVEFPSVVKEKVDPKTGKVEYKIDINLKPLSAG [r5_23_JUSTAS] | -0.104 ± 0.48 kcal/mol | 1.3 ± 0.051 kcal/mol | 0.807 ± 0.18 kcal/mol
37 | SKPVLVKVKIVTKNKNGKKIEKELVIEMSEEDLEKLLEELLNDPNLKDVEKIEIEVVDAETGEVYTFTFPSA [r9_97_TrROS_Hall] | 3.15 ± 0.062 kcal/mol | 2.01 ± 0.19 kcal/mol | 2.89 ± 0.14 kcal/mol
38 | SAGGGPVVLTDPVKTEKSPDGTTYTLTREVFYDPSRGEPLKVRFTLTKVTNYPDGVKTETLEEKEVALSAGG [r13_596_JUSTAS] | 1.33 ± 0.19 kcal/mol | 0.816 ± 0.081 kcal/mol | 1.09 ± 0.16 kcal/mol
39 | SAGGSAGGSAGKVTLTIPFTNEDGTKYIAEFTFDELEVEEDVEIKIVSLGENFDLVLKPESAGGSAGGSAGG [r11_733_TrMRF] | 1.67 ± 0.041 kcal/mol | 1.47 ± 0.069 kcal/mol | 1.63 ± 0.1 kcal/mol
40 | SAPIDIDLERDPEPGRLKATVEFPWPNGWMHRMTFDLQWPRIKVEHYPFKDGEPEPQEIEIPIPANAKVSAG [r14_64_TrROS] | 0.426 ± 0.24 kcal/mol | 0.0882 ± 0.17 kcal/mol | 0.338 ± 0.19 kcal/mol
41 | SAGGSAGGSAGMTPVEITDPNSDKTYTYDPEKKTLTKYYPGEGKTETFPLTSEEEAKKLLSAGGSAGGSAGG [r11_936_JUSTAS] | 0.396 ± 0.069 kcal/mol | -0.536 ± 0.13 kcal/mol | 0.127 ± 0.08 kcal/mol
42 | SAGGKKIRIVMTEEEIKKLAEALAKELNVEVKIVKVEKKTVFDKNGKPVKTYVVVEIEVKKLPPGVKLSAGG [r13_943_TrROS_Hall] | 1.56 ± 0.056 kcal/mol | 1.3 ± 0.099 kcal/mol | 1.57 ± 0.16 kcal/mol
